First the molecules themselves.
T1: Rv0081 (Mycobacterium tuberculosis H37Rv, UniProt P9WMI7 1-114)
T1 sequence: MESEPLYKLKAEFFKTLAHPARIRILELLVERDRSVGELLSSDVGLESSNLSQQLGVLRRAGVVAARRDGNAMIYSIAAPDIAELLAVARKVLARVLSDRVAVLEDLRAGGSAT

B1: FAM-Fragment 1 (dsDNA)
DNA 1: CACATGTACCCAGTGTTAACCTTCTAGTGCACTAGAAGGTCAAGGGGAGTCGC
DNA 2: GCGACTCCCCTTGACCTTCTAGTGCACTAGAAGGTTAACACTGGGTACATGTG
B2: FAM-Fragment 3 (dsDNA)
DNA 1: TGTCGATGGTTGTTCTCATCTGGTAACTCCTTTCCGCAGGCCGCAATTCAGCG
DNA 2: CGCTGAATTGCGGCCTGCGGAAAGGAGTTACCAGATGAGAACAACCATCGACA
B3: Fragment 2 (-103 to -54) (dsDNA)
DNA 1: GTATGGGCTCACCGAGATCAGGCTCGTCACGATCGCCCGCACTGCTGGCGGCT
DNA 2: AGCCGCCAGCAGTGCGGGCGATCGTGACGAGCCTGATCTCGGTGAGCCCATAC
B4: Fragment a (-54 to -25) (dsDNA)
DNA 1: CACATGTACCCAGTGTTAACCTTCTAGTGC
DNA 2: GCACTAGAAGGTTAACACTGGGTACATGTG
B5: Fragment 4 (-203 to -154) (dsDNA)
DNA 1: GGATGGTCATAGTGGCGTCGGGCGCCAGGCCTGCGCGGGCACACGCGGTGCGG
DNA 2: CCGCACCGCGTGTGCCCGCGCAGGCCTGGCGCCCGACGCCACTATGACCATCC
B6: Fragment 1 (-53 to 0) (dsDNA)
DNA 1: CACATGTACCCAGTGTTAACCTTCTAGTGCACTAGAAGGTCAAGGGGAGTCGC
DNA 2: GCGACTCCCCTTGACCTTCTAGTGCACTAGAAGGTTAACACTGGGTACATGTG
B7: Fragment c (-54 to -9) (dsDNA)
DNA 1: CACATGTACCCAGTGTTAACCTTCTAGTGCACTAGAAGGTCAAGGG
DNA 2: CCCTTGACCTTCTAGTGCACTAGAAGGTTAACACTGGGTACATGTG
B8: Fragment 3 (-153 to -104) (dsDNA)
DNA 1: TGTCGATGGTTGTTCTCATCTGGTAACTCCTTTCCGCAGGCCGCAATTCAGCG
DNA 2: CGCTGAATTGCGGCCTGCGGAAAGGAGTTACCAGATGAGAACAACCATCGACA
B9: Fragment b (-54 to -17) (dsDNA)
DNA 1: CACATGTACCCAGTGTTAACCTTCTAGTGCACTAGAAG
DNA 2: CTTCTAGTGCACTAGAAGGTTAACACTGGGTACATGTG
B10: Fragment 5 (-40 to -10) (dsDNA)
DNA 1: GTTAACCTTCTAGTGCACTAGAAGGTCAAG
DNA 2: CTTGACCTTCTAGTGCACTAGAAGGTTAAC
B11: Fragment 6 (-73 to -40) (dsDNA)
DNA 1: CGCCCGCACTGCTGGCGGCTCACATGTACCCAGT
DNA 2: ACTGGGTACATGTGAGCCGCCAGCAGTGCGGGCG

The results in this text go back to PMC6177252, “Transcription factors Rv0081 and Rv3334 connect the early and the enduring hypoxic response of Mycobacterium tuberculosis”.

One series addresses T1, Rv0081. The experiment in a line: EMSA. To be noted: protein: recombinant; tags: His-tag (pET28b); chain copies: 2; label: FAM; blunt. Background: In EMSA bound probe runs differently from free probe, usually more slowly.
With B1, the binding result is reported as “binds”.

In the case of B2, the binding result is on record as “binds”.

The target of the next series is T1, Rv0081. The experiment in a line: EMSA; 576 ng Rv0081. To be noted: protein: recombinant; tags: His-tag (pET28b); chain copies: 2; blunt.
In the case of B3, the binding result was “no binding”. Consider B4, for which the binding result is reported as “no binding”. Regarding B5, the binding result was “no binding”.

Consider B6, for which the binding result is recorded as “binds”.

As for B7, the binding result was “no binding”. Take B8: the binding result is recorded as “binds”. Consider B9, for which the binding result was “no binding”.

A further series has as its target T1, Rv0081. The experiment in a line: EMSA; 288-576 ng Rv0081. Particulars: protein: recombinant; tags: His-tag (pET28b); chain copies: 2; blunt.
In the case of B10, the binding result is recorded as “no binding”.

As for B11, the binding result was “no binding”.
